Measured values as given in US20060172407A1, “Bacterial cell digestion” (priority 2002, published 2006).

System: E. coli
Test: Tests with E. coli: expression of the domain 3 of EF-Tu in cells, electron microscope pictures
Assay type: cell-based, Escherichia coli
Excerpt: One especially advantageous procedure of the invention is as follows. The DNA segment of the EF-Tu gene of Escherichia coli that codes for the domain 3 is obtained and by means of molecular-genetic techniques is transferred into E. coli cells and expressed. In addition to this recombinant segment that contains solely the domain 3, but not domains 1 and 2 of EF-Tu, the cells as before have the native EF-Tu gene and can express it. The additionally synthesized domain 3 polypeptides, however, compete with the native EF-Tu proteins around the binding sites for the formation of the protofilaments. If a domain-3 polypeptide instead of a native EF-Tu protein is incorporated as a link, this leads to chain rupture as a result of the absence of the second binding site (the domain 2 is essential for chain formation) on the domain-3 polypeptide. […] As a result of the loss of integrity of the cytoskeleton, the cytoplasmic membrane of the cell loses it suspension. […] In this way, the cell wall that in the living bacteria cell is positioned and supported by the cytoplasmic membrane is destroyed (see FIG. 5). The loss of the cell wall and the cytoplasmic membrane means exposure of the contents of the cell so that the cell is lysed (cf. FIGS. 5 and 6). The cell contents can thus be recovered without further cell digestion.
Tests with E. coli, Electron microscope pictures, negative contrasting • a) Intact bacteria cells, containing their chromosome and in addition an empty vector (plasmid) that was used in continuing tests as a vector for introducing the domain-3 gene segment. These cells therefore represent controls. • b) Cells of a young culture. A plasmid that in expressible form contains the gene segment that codes for the domain 3 of EF-Tu had been introduced into these cells before the start of cultivation, in addition to its own native chromosome (that does contain the gene that codes intact EF-Tu). The effect of the expression of this “truncated” gene can be clearly seen: In addition to some cells that appear intact (they are recognizable as already weakened in their cell coating with a more exact analysis), the picture is determined by cell residues that indicate the original cell form, but have neither a wall nor CM. The wall and the CM have lost their suspension by destabilization of the cytoskeleton. […] The onetime cell form can no longer be detected; the cell residues form unorganized aggregations

[1] = ultrathin section, expressed in addition to the cell's own EF-Tu

EF-Tu: Full-length bacterial elongation factor EF-Tu introduced by genetic engineering and expressed in addition to the cell's own EF-Tu (control) [reference compound]
state of the cells in electron microscope picture [1]: the cell is intact

B1: domain 3 of EF-Tu: Polypeptide containing solely domain 3 (amino acids 299 to 394) of E. coli EF-Tu, expressed intracellularly from an introduced gene segment (protein)
chain: IKPHTKFESEVYILSKDEGGRHTPFFKGYRPQFYFRTTDVTGTIELPEGVEMVMPGDNIKMVVTLIHPIAMDDGLRFAIREGGRTVGAGVVAKVLG
state of the cells in electron microscope picture (negative contrasting, cells of a young culture, plasmid expression in addition to native EF-Tu): The cell contents are exposed | state of the cells in electron microscope picture (negative contrasting, old culture): End stage of the dissolution of the cells | state of the cells in electron microscope picture [1]: End stage of the dissolution of the cells
